Laboratory results published in the nanobody polyreactivity screen of Harvey et al. (2022).

assay: yeast display, Sf9 membrane polyspecificity reagent, FACS + sequencing; frameworks hold sequencing errors
How it was run: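 In a synthetic yeast display library (Saccharomyces cerevisiae BJ5465), nanobody expression was induced with galactose for 36–48 hours. FACS gates were set low and high (top ~1%) using anti-HA fluorescence for expression and streptavidin fluorescence for binding of the Sf9 membrane reagent. Each polyreactivity label is drawn from the gate of origin.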

Row | Sequence | polyreactivity (PSR sort gate)
1 | QVQLVESGGGLVQAGGSLRLSCDASGRIFDYYAMGWYRQAPGKEMELVAAISTSGGSTYYADSVKGRFTISRDNAKNTVYLQMTRLKPEDTAVYYWAKDITDTYPGLDYDYWGQGTQVTVSS | low polyreactivity
2 | QVQLVESGGGLVQAGGSLRLSCDASGRIFFWYAMGWYRQAPGKERELVAGITSAGSTNYADSVKGRFTISRDNAKNTVYLQMNSLKPEDTSVYFCNTVDSIPIGSGLYYYWGQGTQVTVSS | low polyreactivity
3 | QVQLVESGGGLVQAGGSLRLSCDASGRIFRVYAMGWYRQAHGKERQLVAAIRWTGGSTYYADSVKGRFKISRDNAKNTVYLQMNSLKPEDTAVYYCAAGRYYSDGSRTIYDYWGQGTQVTVSS | low polyreactivity
4 | QVQLVESGGGLVQAGGSLRLSCDASGRIFVRYTMGWYRQATGKERELVAAITRSGGTYYADSVKGRFTISRDNATNTVYLQMNSLKPEDTAVYYCAADSWLSLWYEYWGQGTQVTVSS | low polyreactivity
5 | QVQLVESGGGLVQAGGSLRLSCDASGRIFYINALGWYRQAPGKERELVASITGSGDSTYYADSVKGRFTISRDNAKNTVYLQMNILKPEDTAVYYCAARTYYYYGPRYYYWGQGTQVTVSS | low polyreactivity
6 | QVQLVESGGGLVQAGGSLRLSCDASGRTFAGYAMGWYRQAPGKERELVAAITTSGGRTYYADSVKGRFTISRDNAKNTVYLQMNSLKPEDTAVYDCNVASKGRYARYAAEYGSWGQGTQVTVSS | high polyreactivity
7 | QVQLVESGGGLVQAGGSLRLSCDASGRTFGLNAMGWYRQAPGKERDLVAAISSSGGSTYYADSVKWRFTISRDNAKNTVYLQMNRLKPEDNAVYYCAKVLYRYGNDYYYWGQGTQVTVSS | high polyreactivity
8 | QVQLVESGGGLVQAGGSLRLSCDASGRTFGNNAMGWYRQAPGKERELVASISSSGGTNYADSVKGRFTISRDNAKNTVYVQLNSLKPEDTAVYYCAKRKFTARQRYNYWGQGTQVTVSS | high polyreactivity
9 | QVQLVESGGGLVQAGGSLRLSCDASGRTFIGYAMGWYRQAPGKERELVAAINWSGARTYYADSVKGRFTISRDNAKNTVYLQMNSLKPEDTAVYYCAAVPVTSQTKYGYWGQGTQVTVSS | high polyreactivity
10 | QVQLVESGGGLVQAGGSLRLSCDASGRTFLRNTMGWYRQAPGKERELVAAISRSGATTYYADSVKGRFTISRDNAKNTVYLQMNTLKPEDTADYYCAAAYRGREVEYNSWGQGTQVTVSS | high polyreactivity
11 | QVQLVESGGGLVQAGGSLRLSCDASGSIFDLNAMGWYRQAPGKERELVAAISSGGGTNYADSVKGRFTISRDNAKNTVYLQMYSLKPEDTAVYYCAVGSTRDGVYLGQGTQVTVSS | high polyreactivity
12 | QVQLVESGGGLVQAGGSLRLSCDASGSIFVKNAMGWYRQAPGKERELVAVITIRTATTYYADSVKGRFTISRDNAKNTVYLQMNSLKPEDTAVYYCASAKRQRGYLQREGNYWGQGTQVTVSS | low polyreactivity
13 | QVQLVESGGGLVQAGGSLRLSCDASGSIFYPYAMGWYRQAPGKERELVASISWSGGSTRYADSVKGRFTISRDHAKNTVYLQMNSLKPEDTAVYYCAARYILSKYGSGVRYYYWGQGTQVTVSS | high polyreactivity
14 | QVQLVESGGGLVQAGGSLRLSCDASGSIFYYNAMGWYRQAPGKERELVAAISVSGGSTYYADSVKGRFTISRDNAKNTVYLQMNSLKPEDTAVYYCAAEWLYYYWLPGRADYLEYDYWGQGTQVTVSS | low polyreactivity
15 | QVQLVESGGGLVQAGGSLRLSCDASGSISIGYTMGWYRQAPGKERELVATISWSGGNTYYADSVKGRFTISRDNAKNTVYLQMNSLKPEDTAVYYCAARWYYYPLLYDYWGQGTQVTVSS | low polyreactivity
16 | QVQLVESGGGLVQAGGSLRLSCDASGSTFASYAMGWYRQAPGKERELVAAIRWSGGTTYYADSVKGRFTISRDNAKNTVYLLMNSLKTEDTAVYYCNADRYYLYYYWGQGTQVTVSS | low polyreactivity
17 | QVQLVESGGGLVQAGGSLRLSCDASGSTFPKYAMGWYRQAHGKERELVAAITSSGGRTFYADSVKGRFTISRDNAKNTVYLQMNSLKPEDTAVYYCAAYYYSWSGAFIYDYWGQGTQVTVSS | high polyreactivity
18 | QVQLVESGGGLVQAGGSLRLSCDASGSTFSYYAMGGYRQAPGKERELVAAISGRGGSTYYADSVKGRFTISRDNAKNTVYLQMNSLKPEDTAVYYCAKGRLYTAYGLYSWGQGTQVTVSS | high polyreactivity
19 | QVQLVESGGGLVQAGGSLRLSCDASGSTFVGNSMGWYRPAPGKERELVAALTQSGGNTFYADSVKGRFTISRDYAKNTVYLQINSLKPEDTAVYYCAATVSNGVKLDGPARVDLDYWGQGTQVTVSS | low polyreactivity
20 | QVQLVESGGGLVQAGGSLRLSCDASGSTFWYYAMGWYRQAPGKERELVASITSSGSTNYADSVKGRFTISRDNAKNTVYLQMNSLKPEDTAVYYCNRVSKYERLSRYGYYGYYYWGQGTQVTVSS | high polyreactivity
21 | QVQLVESGGGLVQAGGSLRLSCDASGSTFYYYAMGWYRQAPGKERELVDSISFSGGSTYYADSVKGRFTISRDNAKNTVYLQMNSLKPEDTAVYYCGYYYWGQGTQVTVSS | low polyreactivity

Row | Sequence | polyreactivity (PSR sort gate)
22 | QVQLVESGGGLVQAGGSLRLSCDASGSTSPGYAMGWYRQAPGKERELVAAITFRGTRTYYADSVKGRFTISRDNAKNTVYLQINSLKPEDTAVYYCNVVGYGPNRGRVDYWGQGTQVTVSS | high polyreactivity
23 | QVQLVESGGGLVQAGGSLRLSCDASGTTFVFNAMGWYRHAPGKERELVAAISFSSDTTHYADSVKGRFTISRDNAKNTVYLQMNSLKPEDTAVYYCAADFVGYARNWYYFCGQGTQVTVSS | low polyreactivity
24 | QVQLVESGGGLVQAGGSLRLSCDASGYIFNYAMGWYRQAPGKERELVPAISRRGGSTYYADSVKGRFTISRDNAKNTVYLQMNSLKPEDTSVYYCAADRFRRLHYWTYDYWGKGTQVTVSS | high polyreactivity
25 | QVQLVESGGGLVQAGGSLRLSCDATGSIISYNTMGWYRQAPGKERELVAAITWGGRTYYADSVKGRFTISRDNAKNTVYLQMNSLKPEDTAVYYCAKRIRGGAPTYDYWGQRTQVTVSS | low polyreactivity
26 | QVQLVESGGGLVQAGGSLRLSCDAYGSTFERYVMGWYCQRLGKKGSWLPVLNHNGGSTYYADSVKGRFTISRDNAKNTVYLQMNSLKPEVTAVYYCAPSFRTVLDDGYWGQGSQVTVSS | low polyreactivity
27 | QVQLVESGGGLVQAGGSLRLSCDGSGSIISAYTMEWYRQAPGKEREYVAAIRWSGDSTYYSDSVKGRFTISRDNAKNTVYLQMNSLKPEDTAVYYCAARDLWFPRYSSRYYYWGQGTQVTVSS | high polyreactivity
28 | QVQLVESGGGLVQAGGSLRLSCGAAGSIFAPYALGWYRQAPGKERELVAAISWTGGRTYYADSVKGRFTISRDNAKNTVYLQRNSLKPEDTAVYYCAAAYYGTRPYGYWGQGSQVTVSS | high polyreactivity
29 | QVQLVESGGGLVQAGGSLRLSCGASGIIFASNGMGWYRQAPGKERELVAAISSGGSTNYADSVKGRFTISRDNAKNTVYLQMNSLKPEDTSVYYCAADRWYREYDYWGQATQVTVSS | low polyreactivity
30 | QVQLVESGGGLVQAGGSLRLSCGASGITFVYYTMGWYRQAPGKERELVAAISKNGGSTYYADSVKGRFTISRDNAKNTVYLQMNSLKPEYTAFSYCAAEEGYRWVRYNYWGQGTQVTVSS | high polyreactivity
31 | QVQLVESGGGLVQAGGSLRLSCGASGRIFNSNAMGWYRQAPGKERELVAASSWSGGTSYYADSVKGRFTISRDNAKNTVYLQLNSLKPEDTAVYYCNAVGLHWWPGDYWGQGTQVTVSS | low polyreactivity
32 | QVQLVESGGGLVQAGGSLRLSCGASGRTFPVYAMGWYRQAPGKERELVADISDGGSTNYADSVKGRFTISRDNAKNTVDLQMNSLKPEDTAVYYCNATTFAFSPSLKGAYGYWGQGTQVTVST | low polyreactivity
33 | QVQLVESGGGLVQAGGSLRLSCGASGRTFQFYAMGWYRQAPGKERELVAAISRSSGSTTYADSVKGRFTISRDNAKNTVYLQMNSLKPEDTAVYYCAARRKGKARVPQYDYWGQGTQVTVSS | high polyreactivity
34 | QVQLVESGGGLVQAGGSLRLSCGASGRTFRRNAMGRYRQAPGKERELVAAIRWSSGSTYYADSVKGRFTISRDNAKNTVYLQMNSLKPEDTAVYYCAKRQWGGRESFDYWGQGTQVTVSS | low polyreactivity
35 | QVQLVESGGGLVQAGGSLRLSCGASGSTFYGYAMGWYRQAPGTEREVVAAISSGGSTYYADSVKGRFTISRDNAKNTVYLQMNSLKPEDTAVYYCDAVGYFWITNHKDYYWGQGTQVTVSS | high polyreactivity
36 | QVQLVESGGGLVQAGGSLRLSCGASGSTFYYYTMGWYRQAPGKERELVAAISFIGGSTYYADSVKGRFTISRDNAKNTVYLQMNSLKPEDTAVYYCAAEFYGLVSLSFSYDYWGQGTQVTVSS | low polyreactivity
37 | QVQLVESGGGLVQAGGSLRLSCHASGSTFTFNAMGWYRQAPGKERELVADITSGGRTNYADSVKGRFTISRDNAKNTVYLQMNSLKPEDTAVYYCAARWSAHEYPGYDSWGQGTQVTVSS | low polyreactivity
38 | QVQLVESGGGLVQAGGSLRLSCPASGFTFVTNAMGWYRQAPGKERELVAAISKSGDRTYYADSVKGRFTISRDNAKNTVYLQMNSLKPEDTAVYYCAAGNSNWGQGTQVTVSS | high polyreactivity
39 | QVQLVESGGGLVQAGGSLRLSCPASGLIFRSYAMGRYRQAPGKERELVARISIRGGSTYYADSVKGRFTISRDNAKNTVYLQMNSLKPEDTAVYYCAAVGYLGGYRYDYWGQGTQVTVSS | high polyreactivity
40 | QVQLVESGGGLVQAGGSLRLSCPASGRIFTGYAMGWYRQSPGKERELVASISDSGASTYYADSVKGRFTISRDNAKNTVYLQMNSLKPEDTAVYYCAADWTLDTSYGYYADDFWGQGTQVTVSS | low polyreactivity
41 | QVQLVESGGGLVQAGGSLRLSCPASGRTFRWYAMGWYRQAPGKERELVAAISQSGGSTYYAVSVKGRFTISRDNAKNTVYLQMNSLKPEDTAVYYFNAYPPYGGYAYGRGDYWGQGTQVTVSS | high polyreactivity
